Like-named read-outs stand apart in the source and are kept apart here.
Experiments:
[1] = cited from earlier work
[2] = system: GLP-1R; settings: GL can also activate GLP-1R; cited from earlier work
[3] = Teduglutide stability in the foam after the gassing process; assay type: physicochemical; settings: Ted-loaded foam and effervescence-like formulation, n = 3 (Figure S3)

## Glucagon-like peptide 2 [GLP-2]
[1]; native GLP-2, healthy individuals, breakdown by DPP-4
  elimination half-life: 7 min

## Glepaglutide
[2]
  binding affinity at GLP-1R: low binding affinity
[1]; in humans
  elimination half-life: up to 50 h

## teduglutide
[3]
  stability of Ted after the foaming process (concentration change): degraded after the foaming process

Reference: PMC11912111 (Advanced Healthcare Materials, 2025)
